Assays:
purified protein [1] = substrate: NC(=O)C1=CN([C@@H]2O[C@H](COP(=O)(O)OP(=O)(O)OC[C@H]3O[C@@H](n4cnc5c(N)ncnc54)[C@H](OP(=O)(O)O)[C@@H]3O)[C@@H](O)[C@H]2O)C=CC1; assay: purified protein; assay type: biochemical, Burkholderia gladioli; conditions: apparent, COBE (ethyl 4-chloro-3-oxobutanoate) 50 mM, NADPH 0.01-0.5 mM, pH 6.5, 40 °C, varied: cofactor
purified protein [2] = substrate: NC(=O)C1=CN([C@@H]2O[C@H](COP(=O)(O)OP(=O)(O)OC[C@H]3O[C@@H](n4cnc5c(N)ncnc54)[C@H](O)[C@@H]3O)[C@@H](O)[C@H]2O)C=CC1; assay: purified protein; assay type: biochemical, Burkholderia gladioli; conditions: apparent, COBE (ethyl 4-chloro-3-oxobutanoate) 50 mM, NADH 0.01-0.5 mM, pH 6.5, 40 °C, varied: cofactor

B1: BgADH3 (Burkholderia gladioli BSR3) (protein)
chain: MSETNSRRDFLRHAAAGTAGVAVAAVPGIAAAADGAPDAMPPLARMRNPHDLYPRAPFARQVQPVPGLASKMVPRPDHGETSYRGSNRLAGRKALVTGGDSGIGRAAAIAFAREGADVAINYLPVEESDAREVVALIRKEGRKCVAIPGDIRTEAFCRQLVERAVAELGGLDVLVSNAGHQQARDDIQDISSEQFEQTMKTNVYAPFWIAKAALPHMPAGSSVILTTSEQAFLPSANLLDYAPTKAANIAFVKALAKQQAPRGIRVNAVAPGATWTPLQTSGGQPPEVIDRFGQDNPTGRPAQPVELAPLYVTLASAESSFSSGQVFGANGATGAA
Purified protein [1]
  Km: 81 µM
  Vmax: 9.1 µmol/min/mg
  kcat: 10.6 s⁻¹
  kcat/Km: 131000 M⁻¹ s⁻¹
Purified protein [2]
  Km: 58 µM
  Vmax: 3.4 µmol/min/mg
  kcat: 3.97 s⁻¹
  kcat/Km: 68300 M⁻¹ s⁻¹

Reference: article PMC5070160, “Efficient biosynthesis of ethyl (R)-4-chloro-3-hydroxybutyrate using a stereoselective carbonyl reductase from Burkholderia gladioli” (BMC Biotechnology, 2016)
